Columns and labels:
Format in all cases: physicochemical
[1] = Solubilization of composition 1 judged by absorbance and emission spectra
Method: A composition comprising the fluorophore labelled receptor-targeting peptide conjugate ICG-Glu-Glu-AE105 (called composition 1 below) is soluble in DMSO in concentrations up to 20 mg/ml with a peak spectral absorption at 800 nm similar to indocyanine green (ICG) currently used in the clinic for visual assessment of vessels, blood flow and related tissue perfusion, fig. A.
An aqueous formulation of composition 1 of 1.0 mg/ml has been developed according to the present invention, using excipients suitable for pharmaceutical formulation development.
A. Excitation was conducted at 775 nm.
Further Explanation of the Figs. A-D A. Absorbance and emission spectrum of FG001 dissolved in DMSO and PBS at 1.0 mg/ml. Excitation wavelength: 775 nm. Analytical samples for absorbance measurement were further diluted 200-fold and 400-1000-fold for emission spectra. B. Absorbance spectrum of FG001 dissolved in 1) 10 mM sodium phosphate, 45 mg/ml mannitol, pH 7.4, 2) 10 mM sodium phosphate, 45 mg/ml mannitol, 1% Polysorbate 20, pH 7.4 and 3) PBS, 0.2 g/ml HBC. Analytical samples for absorbance measurement were further diluted 200-fold and 400-1000-fold for emission spectra C. […] Excitation wavelength: 775 nm. Analytical samples for absorbance measurement were further diluted 200-fold and 400-1000-fold for emission spectra

[2] = Long term storage stability of lyophilizate, purity by RP-HPLC; conditions: for Purity, main peak following storage at 5° C. / Purity, main peak following storage at 25° C./60% RH / Purity, main peak following storage at 40° C./75% RH: 780 nm
Method: (§1) The long term stability of composition 1 at a concentration of 1.0 mg/ml was evaluated as a lyophilizate in one formulation comprising 10 mM sodium phosphate, 26 mg/ml mannitol, 9.0 mg/ml glycine, 0.025% Polysorbate 20, pH 7.4 Composition 1 was weighed into the formulation buffer and pH was adjusted to 7.4 using sodium hydroxide or hydrochloric acid. The bulk formulation was sterile filtered through suitable sterile filters and filled into 6R vials. The vials were placed with stoppers in a lyophilizer and lyophilized using a standard program. Following lyophilization all vials were capped, visual inspected and stored protected from light at 5° C., 25° C./60% RH or 40° C./75% RH for up to 9 months
(§2) At the selected timepoint, a vial is removed from the stability chamber for visual inspection of the lyophilizate and water content determination. Another vial is reconstituted with water for injection prior to analyzing the corresponding liquid formulation for purity, pH and visual appearance.
RP-HPLC to detect purity of reconstituted composition 1: Mobile phase A was composed of purified water/acetonitrile (80/20 v/v) with 5 mM ammonium acetate and mobile phase B was composed of purified water/acetonitrile (10/90 v/v) with 5 mM ammonium acetate. A Waters XBridge BEH Peptide, 3.5 μm, 130Å, 4.6×150 mm column was used. Flow rate was set to 1.0 mL/min,detection was at a wavelength of 780 nm, the column running temperature was 45° C. The sample cooler temperature was set at 5° C. and the sample injection load was 10 μg.

[3] = Long term storage stability, water content of lyophilizate by Karl Fisher titration
Method: as §1, §2
The water content of the lyophilizate was determined by Karl Fisher titration according to Ph. Eur. 2.5.32.

[4] = Long term storage stability, visual inspection and pH; conditions: for pH: reconstituted
Method: as §1, §2

[5] = Example 4 lyophilizate, 0 months
[6] = Example 4 lyophilizate, 1 months
[7] = Example 4 lyophilizate, 3 months
[8] = Example 4 lyophilizate, 6 months
[9] = Example 4 lyophilizate, 9 months
[10] = storage at 25° C./60% RH, 0 months
[11] = storage at 25° C./60% RH, 1 months
[12] = storage at 25° C./60% RH, 3 months
[13] = storage at 25° C./60% RH, 6 months
[14] = storage at 25° C./60% RH, 9 months

With CC(C)C[C@H](NC(=O)[C@H](Cc1ccc(O)cc1)NC(=O)C(CCCNC(=N)N)NC(=O)C(CO)NC(=O)C(Cc1ccccc1)NC(=O)[C@H](CC1CCCCC1)NC(=O)C(CC(=O)O)NC(=O)C(CCC(=O)O)NC(=O)C(CCC(=O)O)NC(=O)CCCCCN1\C(=C/C=C/C=C/C=C/C2=[N+](CCCCS(=O)(=O)[O-])c3ccc4ccccc4c3C2(C)C)C(C)(C)c2c1ccc1ccccc21)C(=O)N[C@@H](Cc1c[nH]c2ccccc12)C(=O)N[C@@H](CO)C(=O)O (stereo partly drawn) [composition 1, ICG-Glu-Glu-AE105] the peak absorption ([1]; 10 mM sodium phosphate, 45 mg/ml mannitol, pH 7.4) was “shifted towards the peak absorption at 800 nm”, the solubility ([1]; DMSO, read-out: soluble in DMSO in concentrations) was ≤ 20 mg/mL and the peak spectral absorption ([1]; in DMSO) was 800 nm. For the same compound, the “spectral absorption in the range from 700 nm to 825 nm” value ([1]; phosphate buffer saline, 1.0 mg/ml) was “clear double peak”, the emission spectrum ([1]; phosphate buffer saline, 1.0 mg/ml, excitation 775 nm) was “significantly lower fluorescent peak at 800 nm” and the “solubility in phosphate buffer saline” value ([1]; tested concentration 1.0 mg/ml) was “not soluble”. The “Purity, main peak following storage at 5° C.” value (shortened to “Purity … at 5° C.”) ([2]; Example 4 lyophilizate (mannitol/glycine/0.025% Polysorbate 20), 0 months) was 96.6 area %, the “Purity, main peak following storage at 25° C./60% RH” value (“Purity … at 25° C./60% RH” for short) [2, 5] was 96.6 area % and the “Purity, main peak following storage at 40° C./75% RH” value (“Purity … at 40° C./75% RH” below) [2, 5] was 96.6 area %. The “Purity … at 5° C.” value [2, 6] was 96.2 area %, the “Purity … at 25° C./60% RH” value [2, 6] was 96.2 area % and the “Purity … at 40° C./75% RH” value [2, 6] was 96.0 area %. For the same compound, the “Purity … at 5° C.” value [2, 7] was 96.5 area %, the “Purity … at 25° C./60% RH” value [2, 7] was 96.6 area % and the “Purity … at 40° C./75% RH” value [2, 7] was 95.9 area %. For the same compound, the “Purity … at 5° C.” value [2, 8] was 96.3 area %, the “Purity … at 25° C./60% RH” value [2, 8] was 95.6 area % and the “Purity … at 40° C./75% RH” value [2, 8] was 93.9 area %. The “Purity … at 5° C.” value [2, 9] was 96.2 area %, the “Purity … at 25° C./60% RH” value [2, 9] was 96.2 area % and the “time shown to be stable, judged by the purity determination” value ([2]; selected formulation, storage conditions 5° C. and 25° C./60% RH) was “up to 9 months”. The residual water content ([3]; following 9 months storage at 25° C./60% RH) was “around 2%”, the Residual water ([3]; storage at 5° C., 0 months) was 1.0% and the Residual water ([3]; storage at 5° C., 1 months) was 1.2%. The Residual water ([3]; storage at 5° C., 3 months) was 1.8%, the Residual water ([3]; storage at 5° C., 6 months) was 1.7% and the Residual water ([3]; storage at 5° C., 9 months) was 1.6%. For the same compound, the Residual water [3, 10] was 1.0%, the Residual water [3, 11] was 1.8% and the Residual water [3, 12] was 1.7%. It also gave a Residual water [3, 13] of 1.7%, a Residual water [3, 14] of 1.9% and a pH ([4]; storage at 5° C., 0 months) of 7.4. For the same compound, the pH ([4]; storage at 5° C., 1 months) was 7.3, the pH ([4]; storage at 5° C., 3 months) was 7.4 and the pH ([4]; storage at 5° C., 6 months) was 7.3. The pH ([4]; storage at 5° C., 9 months) was 7.4, the pH [4, 10] was 7.4 and the pH [4, 11] was 7.3. It also gave a pH [4, 12] of 7.4, a pH [4, 13] of 7.3 and a pH [4, 14] of 7.4. For the same compound, the “pH, appearance of the lyophilizate and clarity of reconstituted liquid formulation” value ([4]; up to 9 months storage) was “remains unchaged”.
